Results as given in publication PMC11014265.
Like-named read-outs stand apart in the source and are kept apart here.

Legend:
Experiment in all cases: fluorescence anisotropy
HrpA75-758 (no APHB) [1] = biological target: T1, HrpA75-758 (no APHB) (Escherichia coli, UniProt P43329 75-758)
T1 sequence: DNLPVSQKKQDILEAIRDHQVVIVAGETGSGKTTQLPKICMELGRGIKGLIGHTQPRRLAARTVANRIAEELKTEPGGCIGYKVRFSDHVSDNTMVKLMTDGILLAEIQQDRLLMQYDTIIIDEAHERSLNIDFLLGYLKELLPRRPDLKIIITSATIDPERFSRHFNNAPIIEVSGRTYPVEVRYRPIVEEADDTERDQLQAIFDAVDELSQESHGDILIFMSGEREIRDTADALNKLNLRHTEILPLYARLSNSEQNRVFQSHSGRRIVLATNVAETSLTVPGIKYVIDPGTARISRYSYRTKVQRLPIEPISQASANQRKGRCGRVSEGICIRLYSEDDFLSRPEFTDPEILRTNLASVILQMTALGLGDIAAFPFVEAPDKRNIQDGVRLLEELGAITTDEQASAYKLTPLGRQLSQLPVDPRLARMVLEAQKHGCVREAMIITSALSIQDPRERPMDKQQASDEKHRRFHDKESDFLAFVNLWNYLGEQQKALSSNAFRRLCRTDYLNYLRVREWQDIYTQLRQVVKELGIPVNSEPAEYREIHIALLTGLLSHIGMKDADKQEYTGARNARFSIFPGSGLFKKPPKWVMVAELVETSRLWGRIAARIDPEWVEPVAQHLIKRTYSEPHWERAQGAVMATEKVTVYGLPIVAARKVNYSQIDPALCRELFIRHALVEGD

HrpA75-1300 (no APHB) [2] = biological target: T2, HrpA75-1300 (no APHB) (Escherichia coli, UniProt P43329 75-1300)
T2 sequence: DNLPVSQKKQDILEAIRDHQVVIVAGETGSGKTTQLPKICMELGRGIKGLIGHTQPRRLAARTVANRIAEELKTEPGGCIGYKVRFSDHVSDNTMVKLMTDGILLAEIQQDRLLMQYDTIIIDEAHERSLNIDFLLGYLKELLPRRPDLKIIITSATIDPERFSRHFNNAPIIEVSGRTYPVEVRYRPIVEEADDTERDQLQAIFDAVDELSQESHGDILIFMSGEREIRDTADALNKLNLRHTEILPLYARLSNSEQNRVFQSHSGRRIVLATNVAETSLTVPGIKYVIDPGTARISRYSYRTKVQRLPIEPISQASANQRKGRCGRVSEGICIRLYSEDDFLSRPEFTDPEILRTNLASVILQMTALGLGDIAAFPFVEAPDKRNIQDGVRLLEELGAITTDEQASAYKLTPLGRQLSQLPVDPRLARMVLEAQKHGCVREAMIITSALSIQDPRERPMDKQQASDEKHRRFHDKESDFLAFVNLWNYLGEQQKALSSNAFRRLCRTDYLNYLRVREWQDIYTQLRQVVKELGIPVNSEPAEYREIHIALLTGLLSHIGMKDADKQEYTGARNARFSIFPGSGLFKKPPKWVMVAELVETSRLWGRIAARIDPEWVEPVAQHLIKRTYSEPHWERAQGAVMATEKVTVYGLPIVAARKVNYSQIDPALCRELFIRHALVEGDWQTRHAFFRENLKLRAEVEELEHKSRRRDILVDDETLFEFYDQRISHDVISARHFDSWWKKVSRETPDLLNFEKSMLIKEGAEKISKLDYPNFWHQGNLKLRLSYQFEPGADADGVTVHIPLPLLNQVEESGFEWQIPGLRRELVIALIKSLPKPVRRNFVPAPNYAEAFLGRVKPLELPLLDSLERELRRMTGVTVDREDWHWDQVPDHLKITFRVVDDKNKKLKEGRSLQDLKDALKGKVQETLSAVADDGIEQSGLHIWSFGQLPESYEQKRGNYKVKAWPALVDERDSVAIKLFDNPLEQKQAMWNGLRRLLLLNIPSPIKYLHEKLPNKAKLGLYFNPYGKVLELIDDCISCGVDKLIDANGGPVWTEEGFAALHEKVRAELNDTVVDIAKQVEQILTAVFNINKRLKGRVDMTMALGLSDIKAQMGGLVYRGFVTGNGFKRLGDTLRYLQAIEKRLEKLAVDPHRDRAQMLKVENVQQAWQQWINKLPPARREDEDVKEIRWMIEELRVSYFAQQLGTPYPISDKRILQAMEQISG

HrpA75-758 (no APHB) [3] = biological target: T1, HrpA75-758 (no APHB); remark: listed apart in the source
HrpA75-1300 (no APHB) [4] = biological target: T2, HrpA75-1300 (no APHB); remark: listed apart in the source
HrpA75-1300 (no APHB) [5] = biological target: T2, HrpA75-1300 (no APHB); remark: listed apart in the source
HrpA75-1300 (no APHB) [6] = biological target: T2, HrpA75-1300 (no APHB); remark: listed apart in the source
HrpA1-1300 E49A [7] = biological target: T3, HrpA1-1300 E49A (Escherichia coli, UniProt P43329 1-1300, E49A)
T3 sequence: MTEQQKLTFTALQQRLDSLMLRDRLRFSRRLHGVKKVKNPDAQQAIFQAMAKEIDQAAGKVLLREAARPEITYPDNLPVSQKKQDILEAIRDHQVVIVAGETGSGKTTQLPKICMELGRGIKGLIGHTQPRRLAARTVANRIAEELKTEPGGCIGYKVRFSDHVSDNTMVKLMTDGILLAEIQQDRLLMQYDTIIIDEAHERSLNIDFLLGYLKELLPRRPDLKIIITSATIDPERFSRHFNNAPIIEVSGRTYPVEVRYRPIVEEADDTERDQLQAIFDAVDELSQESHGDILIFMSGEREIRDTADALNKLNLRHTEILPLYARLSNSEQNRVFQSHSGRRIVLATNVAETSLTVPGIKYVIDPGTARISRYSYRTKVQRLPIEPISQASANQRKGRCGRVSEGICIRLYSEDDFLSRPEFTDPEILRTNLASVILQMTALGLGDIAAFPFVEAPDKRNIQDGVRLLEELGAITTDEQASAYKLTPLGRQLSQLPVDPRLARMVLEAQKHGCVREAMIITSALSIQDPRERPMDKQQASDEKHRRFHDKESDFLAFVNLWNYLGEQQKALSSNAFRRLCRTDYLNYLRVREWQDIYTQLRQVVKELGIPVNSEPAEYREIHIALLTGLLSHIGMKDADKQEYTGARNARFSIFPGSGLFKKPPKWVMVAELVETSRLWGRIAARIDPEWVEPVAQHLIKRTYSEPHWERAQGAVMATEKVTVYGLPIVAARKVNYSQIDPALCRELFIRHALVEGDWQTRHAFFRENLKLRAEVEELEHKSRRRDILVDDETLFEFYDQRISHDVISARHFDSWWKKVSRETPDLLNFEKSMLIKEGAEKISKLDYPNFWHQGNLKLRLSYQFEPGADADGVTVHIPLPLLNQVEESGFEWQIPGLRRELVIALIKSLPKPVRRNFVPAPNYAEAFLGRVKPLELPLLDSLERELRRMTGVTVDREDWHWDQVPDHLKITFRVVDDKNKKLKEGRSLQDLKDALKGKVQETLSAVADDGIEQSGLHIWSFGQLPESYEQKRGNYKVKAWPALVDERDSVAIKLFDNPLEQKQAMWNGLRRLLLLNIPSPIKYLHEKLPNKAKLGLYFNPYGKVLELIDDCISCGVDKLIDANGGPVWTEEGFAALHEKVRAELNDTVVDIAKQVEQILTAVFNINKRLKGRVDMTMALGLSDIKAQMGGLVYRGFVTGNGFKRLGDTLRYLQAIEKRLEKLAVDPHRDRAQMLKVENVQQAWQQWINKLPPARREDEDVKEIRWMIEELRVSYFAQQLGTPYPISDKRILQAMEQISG

HrpA1-1300 (full-length) = biological target: T4, HrpA1-1300 (full-length) (Escherichia coli, UniProt P43329 1-1300)
T4 sequence: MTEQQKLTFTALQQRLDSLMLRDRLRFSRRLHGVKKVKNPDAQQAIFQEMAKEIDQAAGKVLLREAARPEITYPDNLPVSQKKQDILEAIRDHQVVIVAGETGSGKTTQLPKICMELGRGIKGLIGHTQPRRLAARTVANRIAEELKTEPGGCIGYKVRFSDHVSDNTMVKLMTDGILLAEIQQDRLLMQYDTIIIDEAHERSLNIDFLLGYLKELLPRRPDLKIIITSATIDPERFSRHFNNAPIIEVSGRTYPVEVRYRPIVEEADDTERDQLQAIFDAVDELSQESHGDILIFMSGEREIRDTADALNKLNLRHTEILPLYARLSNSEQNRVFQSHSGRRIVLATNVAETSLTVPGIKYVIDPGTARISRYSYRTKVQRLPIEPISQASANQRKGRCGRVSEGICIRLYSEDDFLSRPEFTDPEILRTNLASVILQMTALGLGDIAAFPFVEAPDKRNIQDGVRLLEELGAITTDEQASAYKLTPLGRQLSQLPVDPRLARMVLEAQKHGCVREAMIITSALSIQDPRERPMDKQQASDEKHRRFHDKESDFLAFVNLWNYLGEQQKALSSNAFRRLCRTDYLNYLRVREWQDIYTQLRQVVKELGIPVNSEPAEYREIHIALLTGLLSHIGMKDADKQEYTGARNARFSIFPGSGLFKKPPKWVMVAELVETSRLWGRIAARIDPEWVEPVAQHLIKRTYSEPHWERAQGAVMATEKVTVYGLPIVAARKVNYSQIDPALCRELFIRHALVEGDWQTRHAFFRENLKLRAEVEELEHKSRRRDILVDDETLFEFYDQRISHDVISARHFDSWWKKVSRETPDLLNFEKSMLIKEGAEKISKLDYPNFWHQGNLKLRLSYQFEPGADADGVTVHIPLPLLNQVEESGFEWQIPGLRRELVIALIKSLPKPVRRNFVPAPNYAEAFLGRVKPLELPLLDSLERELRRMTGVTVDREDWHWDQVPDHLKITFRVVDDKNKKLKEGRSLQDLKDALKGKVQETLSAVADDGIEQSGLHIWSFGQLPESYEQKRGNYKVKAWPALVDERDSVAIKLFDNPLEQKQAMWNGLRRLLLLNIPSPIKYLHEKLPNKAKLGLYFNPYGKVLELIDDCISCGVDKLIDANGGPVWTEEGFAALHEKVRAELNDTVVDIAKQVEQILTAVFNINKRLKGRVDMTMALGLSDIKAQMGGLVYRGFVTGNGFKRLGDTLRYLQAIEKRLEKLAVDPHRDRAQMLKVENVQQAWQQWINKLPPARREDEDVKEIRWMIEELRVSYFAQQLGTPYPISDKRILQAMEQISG

HrpA75-1300 (no APHB) [8] = biological target: T2, HrpA75-1300 (no APHB); remark: listed apart in the source
HrpA75-1300 (no APHB) [9] = biological target: T2, HrpA75-1300 (no APHB); remark: listed apart in the source
HrpA1-1300 E49A [10] = biological target: T3, HrpA1-1300 E49A; remark: listed apart in the source

B1: R-U12 (ssRNA)
RNA: UUUUUUUUUUUU
B1 was tested, and the binding signal (HrpA75-758 (no APHB) [1]) was greater than 3 fold reduction and the binding signal (HrpA75-1300 (no APHB) [2]) was greater than 2 fold reduction.

B2: R-A12 (ssRNA)
RNA: AAAAAAAAAAAA
Binder B2 has a binding signal (HrpA75-758 (no APHB) [3]) greater than 3 fold reduction and a binding signal (HrpA75-1300 (no APHB) [4]) greater than 3 fold reduction.

B3: R-C12 (ssRNA)
RNA: CCCCCCCCCCCC
B3 gave a binding signal (HrpA75-758 (no APHB) [1]) greater than 3 fold reduction and a binding signal (HrpA75-1300 (no APHB) [5]) greater than 9 fold reduction.

B4: D-C12 (ssDNA)
DNA: CCCCCCCCCCCC
B4: no binding (HrpA75-1300 (no APHB) [6]); binds (HrpA1-1300 E49A [7]).

B5: D-T12 (ssDNA)
DNA: TTTTTTTTTTTT
Binder B5 has a Kd (HrpA1-1300 (full-length)) of 307 nM.

B6: R-G-rich (ssRNA)
RNA: GUGUGUGUGUGU
B6 gave a binding signal (HrpA75-758 (no APHB) [3]) greater than 3 fold reduction and a binding signal (HrpA75-1300 (no APHB) [8]) greater than 9 fold reduction.

B7: D-G-rich (ssDNA)
DNA: GTGTGTGTGTGT
B7: no binding (HrpA75-1300 (no APHB) [9]); binds (HrpA1-1300 E49A [10]).
